From article PMC11076555, “Dishevelled2 activates WGEF via its interaction with a unique internal peptide motif of the GEF” (Communications Biology, 2024)

T1: human WGEF (330-581) (human, UniProt Q8IW93 330-581)
T1 construct: Weak-similarity guanine nucleotide exchange factor (WGEF, Arhgef19, Ephexin2), human, residues 330-581; also called hWGEF; hWGEF^330-581; not shown: GST, N-terminal, cleaved
T1 sequence (looked up): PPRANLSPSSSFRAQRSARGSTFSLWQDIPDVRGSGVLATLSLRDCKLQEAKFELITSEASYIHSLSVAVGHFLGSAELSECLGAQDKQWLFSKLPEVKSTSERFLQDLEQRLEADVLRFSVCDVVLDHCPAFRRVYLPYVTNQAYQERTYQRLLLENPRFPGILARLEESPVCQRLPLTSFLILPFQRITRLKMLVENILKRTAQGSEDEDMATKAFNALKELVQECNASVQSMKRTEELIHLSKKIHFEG

B1: Human Dishevelled2 PDZ domain (domain or fragment, UniProt O14641 261-354, looked up)
chain: MSLNIITVTLNMEKYNFLGISIVGQSNERGDGGIYIGSIMKGGAVAADGRIEPGDMLLQVNDMNFENMSNDDAVRVLRDIVHKPGPIVLTVAKC
modifications: Monolith Red-maleimide 2nd generation cysteine-reactive fluorescent label (in the MST experiments)
notes: Dishevelled2 (Dvl2), human, PDZ domain; Addgene plasmid 38876 changed by a stop codon after C354 to remove the peptide fused at the C-terminus of the PDZ; Used unlabelled in the GEF assays and labelled in MST; also called Dvl2^PDZ; hDvl2^PDZ; source: E. coli Rosetta (DE3), purified (Ni-NTA, TEV cleavage, second Ni-NTA, gel filtration); not shown: His6, N-terminal, cleaved
B2: N3^pep (peptide)
peptide: EIVLWSDIP
notes: engineered peptide, closest homologue of WGEF^pep; structure with Dvl2^PDZ in PDB 3CC0; also called engineered internal peptide N3; source: synthetic peptide, bought: Sai Biotech
B3: WGEF^pep (internal PDZ binding motif peptide of WGEF) (peptide)
peptide: GSTFSLWQDIP
notes: also called WGEF IPM peptide; source: synthetic peptide, bought: Sai Biotech
B4: WGEF^pepI10A (peptide)
peptide: GSTFSLWQDAP
notes: WGEF (Arhgef19), human residues 349-359 with I10A; numbers count on: the peptide (1-11); I10 is I358 of human WGEF (from the printed limits); also called Ile at P1 to Ala; source: synthetic peptide, bought: Sai Biotech
B5: WGEF^pepL6A (peptide)
peptide: GSTFSAWQDIP
notes: WGEF (Arhgef19), human residues 349-359 with L6A; numbers count on: the peptide (1-11); L6 is L354 of human WGEF and L407 of Xenopus WGEF (from the printed limits); source: synthetic peptide, bought: Sai Biotech
B6: WGEF^pepQ8A (peptide)
peptide: GSTFSLWADIP
notes: WGEF (Arhgef19), human residues 349-359 with Q8A; numbers count on: the peptide (1-11); Q8 is Q356 of human WGEF (from the printed limits); source: synthetic peptide, bought: Sai Biotech

How the values were obtained:
human WGEF (330-581) = biological target: T1, human WGEF (330-581); assay: MST; 50 nM fluorescently labelled Dvl2^PDZ (Red-maleimide, cysteine reactive); peptides serially diluted 1:2 16 times from about 3.4 mM, hWGEF (330-581) 138-0.0042 uM; 25 C, 30 min incubation; 10 mM Tris-HCl pH 8, 150 mM NaCl, 2 mM DTT, 5% glycerol, 0.05% Tween20; Monolith NT.115; triplicates; details: both partners purified
[1] = biological target: Xenopus laevis WGEF (330-856) (Xenopus laevis); assay: cell-based or functional assay
[2] = biological target: B1; assay: MST; 50 nM fluorescently labelled Dvl2^PDZ (Red-maleimide, cysteine reactive); peptides serially diluted 1:2 16 times from about 3.4 mM, hWGEF (330-581) 138-0.0042 uM; 25 C, 30 min incubation; 10 mM Tris-HCl pH 8, 150 mM NaCl, 2 mM DTT, 5% glycerol, 0.05% Tween20; Monolith NT.115; triplicates; details: both partners purified

Binder: B1
- Kd (human WGEF (330-581)): 7.9 µM
- GEF activity of xWGEF330 (5 uM) on Mant-GDP loaded RhoA with 0, 25 and 50 uM Dvl2^PDZ; no observable change at 25 uM [1]: 4 fold

Binder: B2
- Kd [2]: 54 µM

Binder: B3
- Kd [2]: 45 µM

Binder: B4
- Kd [2]: 56 µM

Binder: B5
- Kd [2]: 2400 µM

Binder: B6
- Kd [2]: 8.5 µM
